One series has as its target T1, EBD-200 (Cavia porcellus, UniProt H0W0T5).
T1 construct: gene ASPG
The conditions noted are these: read-out: EBD-200 ^a; 50 mM Tris-HCl pH 7.5, 200 mM NaCl, 37 °C. The text has this: continuous coupled NADH spectrophotometric assay (malic dehydrogenase / glutamic-oxalacetic transaminase) on EBD-200

The target in a further series is T2, E. coli L-ASNase (EcA) (Escherichia coli, UniProt P00805).
T2 construct: gene ansB; made in cytosol of E. coli C41(DE3) from His6-SUMO-pET14b, His-SUMO tag cut with SUMO protease, gel filtration; family forms tetramers
T2 sequence (P00805 23-348): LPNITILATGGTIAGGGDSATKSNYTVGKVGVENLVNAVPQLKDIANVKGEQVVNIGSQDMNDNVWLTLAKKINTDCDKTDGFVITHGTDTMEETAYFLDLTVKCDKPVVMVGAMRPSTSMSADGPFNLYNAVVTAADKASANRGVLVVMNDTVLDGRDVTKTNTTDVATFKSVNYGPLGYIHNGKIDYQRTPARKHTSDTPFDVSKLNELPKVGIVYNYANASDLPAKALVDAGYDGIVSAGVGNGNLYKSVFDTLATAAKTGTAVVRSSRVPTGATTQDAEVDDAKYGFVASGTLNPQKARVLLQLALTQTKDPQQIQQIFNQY
The experiment in a line: continuous coupled NADH assay (L-glutamic dehydrogenase); NMR. The conditions noted are these: 5 mM GLN, 10 nM enzyme (spectrophotometric); 0.1 and 2 μM enzyme (NMR). In kind it is biochemical.

Substrate in series [1]: NC(=O)C[C@H](N)C(=O)O
The experiment in a line: continuous coupled NADH spectrophotometric assay (malic dehydrogenase / glutamic-oxalacetic transaminase). The conditions noted are these: 50 mM Tris-HCl pH 7.5, 200 mM NaCl, 37 °C. It counts as biochemical, Escherichia coli.

Substrate in the series “purified protein”: NC(=O)C[C@H](N)C(=O)O
Nature of the series: purified protein. The conditions noted are these: 50 mM Tris-HCl pH 7.5, 200 mM NaCl, 37 °C, in-house preparation, 0.6 % WT contamination, printed as >1.4 mM.

The text below walks through data of paper PMC12177098, “A human-like glutaminase-free asparaginase is highly efficacious in ASNS^low leukemia and solid cancer mouse xenograft models” (Cancer letters, 2024).

T1 sequence (H0W0T5 1-359): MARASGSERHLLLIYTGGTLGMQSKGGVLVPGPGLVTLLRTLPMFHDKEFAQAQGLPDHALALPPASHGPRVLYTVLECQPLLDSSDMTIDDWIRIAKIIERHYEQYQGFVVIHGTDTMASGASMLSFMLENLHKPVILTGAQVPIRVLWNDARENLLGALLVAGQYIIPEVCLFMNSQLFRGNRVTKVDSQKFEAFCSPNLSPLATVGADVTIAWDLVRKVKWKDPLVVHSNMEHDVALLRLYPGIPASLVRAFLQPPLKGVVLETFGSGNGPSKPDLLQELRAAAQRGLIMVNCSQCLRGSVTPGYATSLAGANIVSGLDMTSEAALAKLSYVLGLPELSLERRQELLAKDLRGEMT

For `NC(=O)C[C@H](N)C(=O)O` [L-ASN], on EBD-200, the Km came out at 41.3 ± 0.7 µM.

Turning to `NC(=O)CC[C@H](N)C(=O)O` [L-GLN], the “continuous coupled NADH assay (L-glutamic dehydrogenase); NMR” value at E. coli L-ASNase (EcA) is “GLNase activity is easily observed by EcA but not by EBD-200”.

B1: E. coli L-ASNase (EcA) (Escherichia coli K-12) (protein)
chain: LPNITILATGGTIAGGGDSATKSNYTVGKVGVENLVNAVPQLKDIANVKGEQVVNIGSQDMNDNVWLTLAKKINTDCDKTDGFVITHGTDTMEETAYFLDLTVKCDKPVVMVGAMRPSTSMSADGPFNLYNAVVTAADKASANRGVLVVMNDTVLDGRDVTKTNTTDVATFKSVNYGPLGYIHNGKIDYQRTPARKHTSDTPFDVSKLNELPKVGIVYNYANASDLPAKALVDAGYDGIVSAGVGNGNLYKSVFDTLATAAKTGTAVVRSSRVPTGATTQDAEVDDAKYGFVASGTLNPQKARVLLQLALTQTKDPQQIQQIFNQY
notes: made in cytosol of E. coli C41(DE3) from His6-SUMO-pET14b, His-SUMO tag cut with SUMO protease, gel filtration; family forms tetramers
As usually defined, the kcat is the maximal rate divided by the concentration of active sites. B1: in series [1], the Km stood at 14 µM and the kcat amounted to 44 s⁻¹.

B2: E. coli L-ASNase (EcA) (Escherichia coli K-12; Q81L) (protein)
chain: LPNITILATGGTIAGGGDSATKSNYTVGKVGVENLVNAVPQLKDIANVKGEQVVNIGSLDMNDNVWLTLAKKINTDCDKTDGFVITHGTDTMEETAYFLDLTVKCDKPVVMVGAMRPSTSMSADGPFNLYNAVVTAADKASANRGVLVVMNDTVLDGRDVTKTNTTDVATFKSVNYGPLGYIHNGKIDYQRTPARKHTSDTPFDVSKLNELPKVGIVYNYANASDLPAKALVDAGYDGIVSAGVGNGNLYKSVFDTLATAAKTGTAVVRSSRVPTGATTQDAEVDDAKYGFVASGTLNPQKARVLLQLALTQTKDPQQIQQIFNQY
For the molecule B2, in “purified protein”, the Km stood at 1400 µM and the kcat was found to be 1.3 s⁻¹.
